The values below come from patent publication US20180319855A1, “GENETICALLY MUTATED AEQUORIN-BASED BIOSENSORS WITH EXTRA SENSITIVITY TO CALCIUM AND IMPROVED BIOLUMINESCENCE INTENSITY” (CENTRE NATIONAL DE LA RECHERCHE SCIENTIFIQUE (CNRS), priority 2015, published 2018).

Residue numbers refer to the chain shown, from its start. Names and notes keep the numbering of the source. Values joined by “and” are separate entries in the source; they are usually repeats but may differ in a detail not shown here. Identical values can stand only once.

Data set [1] relates to pyramidal neurons of mouse neocortical slices. Description: Bioluminescence Ca2+ imaging of transduced neocortical slices in Mg2+-free ACSF. It is filed as cell-based. The settings on record: native coelenterazine, 25 Hz. As to the method:
Recombinant Sindbis viruses were prepared and used to express Redquorin mutants and GA in neurons of brain slices as described (Drobac et al., 2010), (Tricoire and Lambolez, 2014). The coding sequences of Redquorin mutants and GA were first subcloned in the plasmid pSinRep5 (Invitrogen) upstream to the polyA signal. The resulting pSinRep5 plasmids encoding the fusion protein sensors as well as the helper plasmid pDH26S (Invitrogen) were then submitted to in vitro transcription to prepare capped RNA using the Megascript SP6 kit (Ambion). […]
Bioluminescence imaging was performed at room temperature using an intensified CDD video camera (ICCD225; Photek) controlled by the IFS32 software (Photek), and mounted on an upright microscope (BX51WI, Olympus) equipped with water immersion objectives ×10 (NA=0.3) and ×20 (NA=0.95). Prior to bioluminescence imaging, fluorescence images of GA- or Redquorin-transduced slices were acquired in the “bright field” mode of the camera using GFP (Semrock) or Cy3ET (Chroma) filter sets. […]
The transduced acute brain slices expressing the sensors were then perfused with artificial cerebrospinal fluid (ACSF) without Mg^2+. […] Before the threshold for depolarization, the recorded imaging intensity was very weak consistent with the concept of low background luminescence of photoproteins. […]

The nature of data set [2]: Thermostability: relative bioluminescence activity after 30 min incubation. Type of data set: physicochemical. The settings on record: CLZ-f. The gist of the method: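 Purified photoprotein was reconstituted with CLZ-f and read for total counts with saturating calcium (50 mM Tris-HCl, 100 mM CaCl2, pH 7.5). It was then held at 30 to 40 °C for 30 min, re-equilibrated for 15 min and read again. Activity is 2nd/1st counts ×100.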

The subject of data set [3] is endogenous P2Y2 receptor. Nature of the data set: Assay of activation of endogenous P2Y2 receptor by ATP in CHO cells stably expressing photoproteins. The settings on record: CHO cells stably expressing the sensor; for EC50: ATP dose-response, read-out: EC50 (half-maximal effective concentration of ATP for P2Y2 activation). Type of data set: cell-based. The procedure: Stably prepared CHO cells were loaded with 5 μM coelenterazine in 130 mM NaCl, 5 mM KCl, 1 mM MgCl2, 2 mM CaCl2, 5 mM NaHCO3, 20 mM N-(2-hydroxyethyl) piperazine-N′-ethanesulfonic acid (HEPES), pH 7.4 for 4 h at ambient temperature.
To produce stable CHO cell lines, the cells transfected with GA and Redquorin variant plasmids were seeded on six-well plates and grown in the same medium with addition of Geneticin sulfate (G418) (Gibco, UK) at 1 mg/ml under the same conditions with replacement of the medium by fresh medium every 2 days. After 7-10 days of selection, CHO cells were transferred into a medium without antibiotic. To select clones with the highest bioluminescence activity, one run of limiting dilution was performed. CHO cells after G418 selection were seeded on 96-well plates (approximately 0.5 cells per well) and grown in DMEM/F12 medium supplemented with 10% fetal calf serum at 37° C., 5% CO2 for up to 80-90% confluence. Before the bioluminescence measurements, the plates with monoclones of CHO cells expressing the corresponding photoprotein were duplicated and grown for up to 90-100% confluence. Then, the medium was removed and cells were loaded with coelenterazine, and bioluminescence in each well was measured according to the procedure described earlier. As a result, the CHO cell clones with the highest bioluminescence activity were selected.
Assay of Activation of Endogenous P2Y2 Receptor in CHO Cells
The CHO cell lines stably expressing each photoprotein were used in assay of activation of endogenous P2Y2 receptor by ATP. The day before the measurements, the corresponding cells were seeded on 96-well plates with DMEM/F12 medium supplemented with 10% fetal calf serum and were grown at 37° C. with 5% CO2 for up to 90-100% confluence. Then, the medium was replaced by 100 μl of coelenterazine solution per well (5 μM coelenterazine in 130 mM NaCl, 5 mM KCl, 1 mM MgCl2, 2 mM CaCl2, 5 mM NaHCO3, 20 mM HEPES, pH7.4) and the cells were incubated at 23° C. for 4 h. Emission from photoproteins in the cells was measured using a Mithras LB 940 plate luminometer. The ATP was injected at a given concentration to trigger an intracellular Ca^2+ response in the cells and the measurement started immediately. The bioluminescence was integrated over a time interval of 0.05 s for 30 s.

B1: Redq/Q159T: aporedquorin (tdTomato-aequorin fusion) mutant Q159T (SEQ ID NO:22) (protein)
chain: MVSKGEEVIKEFMRFKVRMEGSMNGHEFEIEGEGEGRPYEGTQTAKLKVTKGGPLPFAWDILSPQFMYGSKAYVKHPADIPDYKKLSFPEGFKWERVMNFEDGGLVTVTQDSSLQDGTLIYKVKMRGTNFPPDGPVMQKKTMGWEASTERLYPRDGVLKGEIHQALKLKDGGHYLVEFKTIYMAKKPVQLPGYYYVDTKLDITSHNEDYTIVEQYERSEGRHHLFLGHGTGSTGSGSSGTASSEDNNMAVIKEFMRFKVRMEGSMNGHEFEIEGEGEGRPYEGTQTAKLKVTKGGPLPFAWDILSPQFMYGSKAYVKHPADIPDYKKLSFPEGFKWERVMNFEDGGLVTVTQDSSLQDGTLIYKVKMRGTNFPPDGPVMQKKTMGWEASTERLYPRDGVLKGEIHQALKLKDGGHYLVEFKTIYMAKKPVQLPGYYYVDTKLDITSHNEDYTIVEQYERSEGRHHLFLSGFDNPRWIGRHKHMFNFLDVNHNGKISLDEMVYKASDIVINNLGATPEQAKRHKDAVEAFFGGAGMKYGVETDWPAYIEGWKKLATDELEKYAKNEPTLIRIWGDALFDIVDKDQNGAITLDEWKAYTKAAGIIQSSEDCEETFRVCDIDESGTLDVDEMTRQHLGFWYTMDPACEKLYGGAVP
modifications: mutant aequorin
In the case of B1, the “bioluminescence imaging response to Ca2+ transients” value in data set [1] is “performed as well as its analogue GA”. Moreover, the “Thermostability, luminescence activity relative to wt-aequorin” value in data set [2] (30° C. for 30 min) was found to be 0.90. For the same molecule, in data set [2] (40° C. for 30 min), the “Thermostability, luminescence activity relative to wt-aequorin” value is 0.92. In data set [3], the “[ATP] DL (detection limit)” value is 398 nM and 398 ± 17 nM; the EC50 came out at 1700 nM.

B2: Redq/Q159D: aporedquorin (tdTomato-aequorin fusion) mutant Q159D (SEQ ID NO:21) (protein)
chain: B1 chain with T623D
modifications: mutant aequorin
B2: the “bioluminescence imaging response to Ca2+ transients” value in data set [1] is “significant signal-over-background ratio”. Further, the “Thermostability, luminescence activity relative to wt-aequorin” value came out at 0.91 in data set [2] (30° C. for 30 min) and 0.95 in data set [2] (40° C. for 30 min). Further, the “[ATP] DL (detection limit)” value in data set [3] amounted to 417 ± 16 nM. Further, the EC50 in data set [3] was determined as 2300 ± 200 nM.
